Experimental data: paper PMC4971492, “Structural basis for misregulation of kinesin KIF21A autoinhibition by CFEOM1 disease mutations” (Scientific Reports, 2016)

Biological target: the molecule itself
Assay: cross-linking; cysteine (disulfide) cross-linking in COS-7 lysates, 1 h room temperature, SDS-PAGE under reducing and non-reducing conditions, anti-GFP Western blot

B1: GFP-labelled CLIP-115 (natural protein)
chain: not shown
notes: CLIP-115 (CAP-Gly domain-containing linker protein 2); Species surmised as rat; source: COS-7, transfected, in lysate; not shown: GFP (monomeric), N-terminal, kept
stoichiometry N: 2
